Laboratory results taken from US20160368988A1 (MERUS N V, published 2016).
Residue numbers refer to the chain shown, from its start. Numbers in names are those of the source.

Columns and labels:
[1] = molecular target: T1, human CD3, membrane-expressed (CD3/TCR complex on HPB-ALL cells or purified human T cells) (human, UniProt P07766 23-207; P04234 22-171; P09693 23-182); assay: flow cytometry on HPB-ALL cells
T1 construct: whole, on cells; On cells CD3 stands in the complex with the TCR and the zeta chain; also called cell surface expressed CD3/TCR complexes
T1 sequence (P07766 23-207, chain 1 of 3): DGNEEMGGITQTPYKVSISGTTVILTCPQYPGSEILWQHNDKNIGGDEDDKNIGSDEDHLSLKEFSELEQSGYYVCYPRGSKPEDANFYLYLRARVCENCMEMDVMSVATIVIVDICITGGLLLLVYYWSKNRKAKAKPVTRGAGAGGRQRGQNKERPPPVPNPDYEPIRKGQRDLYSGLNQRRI
T1 sequence (P04234 22-171, chain 2 of 3): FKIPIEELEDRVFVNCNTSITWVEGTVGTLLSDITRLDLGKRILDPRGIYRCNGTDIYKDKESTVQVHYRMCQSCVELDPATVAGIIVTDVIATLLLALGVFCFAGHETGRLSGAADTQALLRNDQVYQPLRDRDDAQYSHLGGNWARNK
T1 sequence (P09693 23-182, chain 3 of 3): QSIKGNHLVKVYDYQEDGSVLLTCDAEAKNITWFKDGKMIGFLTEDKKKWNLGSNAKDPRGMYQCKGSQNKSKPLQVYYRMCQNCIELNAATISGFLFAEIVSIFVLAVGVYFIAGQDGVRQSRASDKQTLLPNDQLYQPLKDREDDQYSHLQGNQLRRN

[2] = molecular target: T2, recombinant purified human CLEC12A (Sino Biological Inc, cat. Nr. 11896-H07H) (human, UniProt Q5QGZ9 65-265); assay: SPR (BIAcore T100), bsAb captured by anti-human IgG on a CM5 chip, antigen in solution; average of three measurements
T2 construct: Bought protein; also called CLEC12A protein
T2 sequence (looked up): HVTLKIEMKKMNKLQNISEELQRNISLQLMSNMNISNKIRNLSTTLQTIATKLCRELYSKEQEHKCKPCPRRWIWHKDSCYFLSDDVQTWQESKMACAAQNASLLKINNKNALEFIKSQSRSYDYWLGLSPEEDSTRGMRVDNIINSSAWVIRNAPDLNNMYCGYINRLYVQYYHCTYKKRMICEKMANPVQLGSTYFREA

[3] = molecular target: T1, human CD3, membrane-expressed (CD3/TCR …); assay: flow cytometry on CD3+ HPB-ALL cells [panel HPB-ALL]
[4] = molecular target: T2, recombinant purified human CLEC12A …; assay: SPR (BIAcore T100), ratio of the two KD values
[5] = molecular target: T1, human CD3, membrane-expressed (CD3/TCR …); assay: flow cytometry on HPB-ALL cells [upper panel]
[6] = molecular target: T1, human CD3, membrane-expressed (CD3/TCR …); assay: flow cytometry on HPB-ALL cells [upper panel]; remark: listed apart in the source
[7] = molecular target: T1, human CD3, membrane-expressed (CD3/TCR …); assay: flow cytometry on HPB-ALL cells [lower panel]
[8] = molecular target: T1, human CD3, membrane-expressed (CD3/TCR …); assay: flow cytometry on HPB-ALL cells; remark: listed apart in the source
[9] = molecular target: T1, human CD3, membrane-expressed (CD3/TCR …); assay: flow cytometry on HPB-ALL cells [lower panel]; remark: listed apart in the source

B1: PG3873 (antibody, V domains shown)
VH: QVQLVQSGGGVVQPGRSLRLSCVASGFTFSSYGMHWVRQAPGKGLEWVAAIWYQGRKQDYADSVKGRFTISRDNSKNTLYLQMNSLRAEDTAVYYCTRGTGYNWFDPWGQGTLVTVSS
VL: not shown
notes: Full length monoclonal IgG; also called MF3873 as IgG
**Q.** Does B1 bind [1]?
**A.** no binding (tested: 10 µg/ml)

B2: 5196×4327 DM-Fc bsAb (bispecific antibody, V domains shown)
VH 1: B1 VH with Q54N, G55A
VH 2: QVQLVQSGAEVKKPGASVKVSCKASGYTFTSYYMHWVRQAPGQGLEWMGIINPSGGSTSYAQKFQGRVTMTRDTSTSTVYMELSSLRSEDTAVYYCAKGTTGDWFDYWGQGTLVTVSS
VL: not shown
notes: Full length bispecific IgG with the lower hinge/CH2 changes at positions 235-236 (DM-Fc; L235G, G236R) and CH3 heterodimerisation (KK/DE variants) as in WO2014/051433
**Q.** How did the Kd [2] turn out when B2 was run?
**A.** 3 nM

**Q.** Does B2 bind [3]?
**A.** binds

**Q.** What about the “fold higher affinity of the CLEC12A arm than of the human CD3 binding arm” value [4] of the same binder?
**A.** ~60 fold

B3: PG5694 (antibody, V domains shown)
VH: B1 VH with Q54N, G55A, D59E, A61S
VL: not shown
notes: Monospecific IgG format; also called MF5694 in monospecific IgG format
**Q.** Does B3 bind [5]?
**A.** binds

B4: PG5354 (antibody, V domains shown)
VH: B1 VH with V23A, S31G, A50Q, W52Y, Q54D, R56S, K57R, Q58T, D59Y
VL: not shown
notes: Monospecific IgG format; also called MF5354 in monospecific IgG format
**Q.** Does B4 bind [6]?
**A.** binds

B5: PG5356 (antibody, V domains shown)
VH: B1 VH with Q6E, V23A, S31K, A50Q, Y53H, Q54D, Q58T, D59Y
VL: not shown
notes: Monospecific IgG format; also called MF5356 in monospecific IgG format
**Q.** Does B5 bind [7]?
**A.** binds

B6: PG5648 (antibody, V domains shown)
VH: B1 VH with Q54N, G55A, D59E, A61L
VL: not shown
notes: Monospecific IgG format; also called MF5648 in monospecific IgG format
**Q.** Does B6 bind [5]?
**A.** binds

B7: PG5196 (antibody, V domains shown)
VH: B1 VH with Q54N, G55A
VL: not shown
notes: Full length monoclonal IgG; also called PG5196 mAb; MF5196 as IgG
**Q.** Does B7 bind [8]?
**A.** binds

B8: PG5626 (antibody, V domains shown)
VH: B1 VH with Q54N, G55A, D59E, A61R
VL: not shown
notes: Monospecific IgG format; also called MF5626 in monospecific IgG format
**Q.** Does B8 bind [9]?
**A.** binds

B9: PG5351 (antibody, V domains shown)
VH: B1 VH with V23A, A50M, Q54D, R56K, K57N, Q58T, D59Y
VL: not shown
notes: Monospecific IgG format; also called MF5351 in monospecific IgG format
**Q.** Does B9 bind [7]?
**A.** binds

B10: PG5630 (antibody, V domains shown)
VH: B1 VH with Q54N, G55A, F105Y
VL: not shown
notes: Monospecific IgG format; also called MF5630 in monospecific IgG format
**Q.** Does B10 bind [5]?
**A.** binds

B11: PG3905 (antibody, V domains shown)
VH: B1 VH with Q54G
VL: not shown
notes: Full length monoclonal IgG; also called MF3905 as IgG
**Q.** Does B11 bind [1]?
**A.** no binding (tested: 10 µg/ml)

B12: PG5603 (antibody, V domains shown)
VH: B1 VH with Q54N, G55A, D59E, A61I
VL: not shown
notes: Monospecific IgG format; also called MF5603 in monospecific IgG format
**Q.** Does B12 bind [5]?
**A.** binds

B13: PG5616 (antibody, V domains shown)
VH: B1 VH with Q54N, G55A, D59E, A61N
VL: not shown
notes: Monospecific IgG format; also called MF5616 in monospecific IgG format
**Q.** Does B13 bind [9]?
**A.** binds
